# According to doi:10.1101/2022.01.19.477021, “The Intrinsically Disordered Region of Coronins Fine-tunes Oligomerization and Actin Polymerization” (bioRxiv, 2022):
# Several values for one entry are separate records, joined by “and”; a condition that tells them apart may be missing. Identical values can stand only once.
# B1: Crn1-ΔIDR (Crn1 lacking the IDR, aa 401-604) (natural protein, S. cerevisiae, UniProt Q06440 1-651, looked up)
# chain: MSGKFVRASKYRHVFGQAAKKELQYEKLKVTNNAWDSNLLKTNGKFIAVNWNASGGGAFAVIPIEEVGKAPDQVPLFRGHTAQVLDTDFDPFNDHRIASGSDDSKIGIWDIPENYKFHDHVDEDGEPIDIKPVKFLTGHARKVGHVLYHPVAENVLASSSGDYTVKLWNVETGKDMITLKHPDMVTSMSFSYDGNYLATVARDKKLRVWNIREEKIVSEGPAHTGAKNQRVVWLGNSDRLATTGFSKLSDRQIGIWDAFNIEKGDLGGFYTVDQSSGILMPFYDEGNKILYLVGKGDGNIRYYEFQNDELFELSEFQSTEAQRGFAVAPKRMVNVKENEVLKGFKTVVDQRIEPVSFFVPRRSEEFQEDIYPDAPSNKPALTAEEWFSGKSVEGPILVSMLGLKKSVEKLSTLVLQLEDVVDKLTKANLDKDERLLKLEQKIGELSK
# notes: Crn1 (coronin), S. cerevisiae, residues 1-651 with the IDR (401-604) deleted; made from the pSY5-Crn1-FL plasmid; source: E. coli Rosetta (DE3), purified (HisTrap, SEC when necessary)
# B2: Crn1-CC (C-terminal coiled-coil domain, aa 605-651) (domain or fragment, S. cerevisiae, UniProt Q06440 605-651, looked up)
# chain: LGLKKSVEKLSTLVLQLEDVVDKLTKANLDKDERLLKLEQKIGELSK
# notes: Crn1 (coronin), S. cerevisiae, residues 605-651, coiled-coil domain; made by truncating 401-604 from the Crn1-ΔN (401-651) plasmid; The introduction gives the CC domain as aa 600-651; also called CC domain; source: E. coli Rosetta (DE3), purified (HisTrap, SEC when necessary)
# B3: Crn1 full-length (Crn1-FL), recombinant from E. coli (natural protein, S. cerevisiae, UniProt Q06440 1-651, looked up)
# chain: MSGKFVRASKYRHVFGQAAKKELQYEKLKVTNNAWDSNLLKTNGKFIAVNWNASGGGAFAVIPIEEVGKAPDQVPLFRGHTAQVLDTDFDPFNDHRIASGSDDSKIGIWDIPENYKFHDHVDEDGEPIDIKPVKFLTGHARKVGHVLYHPVAENVLASSSGDYTVKLWNVETGKDMITLKHPDMVTSMSFSYDGNYLATVARDKKLRVWNIREEKIVSEGPAHTGAKNQRVVWLGNSDRLATTGFSKLSDRQIGIWDAFNIEKGDLGGFYTVDQSSGILMPFYDEGNKILYLVGKGDGNIRYYEFQNDELFELSEFQSTEAQRGFAVAPKRMVNVKENEVLKGFKTVVDQRIEPVSFFVPRRSEEFQEDIYPDAPSNKPALTAEEWFSGKSVEGPILVSMRSIYDGSAPSFHEAKRPQQPTTQETALEEKKEQPKVEKPISESEKEVKQEAPKSPSPLKSASSSSTINHVLKEDNSINKLLKKSSDIDQVNNAEDPSRDTSGWEEADDEPAPIKIETPVTPTETKKDRTPKVEPSKELKPEPVSIATDRKQEQSLPQEEKSSEKTKSPEQEKSATPPSSITAAKTAITASSKEEPSAARTSPKSLGLKKSVEKLSTLVLQLEDVVDKLTKANLDKDERLLKLEQKIGELSK
# notes: Crn1 (coronin), S. cerevisiae, residues 1-651; Vector pET-21d(+)(pSY5) adds an 8x histidine tag and an HRV 3C protease site at the N-terminus; cleavage is not described; By AUC-SV a mix of monomers and tetramers; also called WT Crn1; source: E. coli Rosetta (DE3), purified (HisTrap, SEC when necessary)
# B4: yeast purified full-length Crn1 (yCrn1-FL) (natural protein, S. cerevisiae, UniProt Q06440 1-651, looked up)
# chain: B3 chain
# notes: Crn1 (coronin), S. cerevisiae, full length; The text says C-terminal 6xHis-tagged, but names the vector as pGAL-ORF-3×StreptagII-9×His; source: S. cerevisiae (strain YMY2043, galactose-induced overexpression), purified (HisTrap)
# B5: Crn1ΔIDR-S (Crn1 with a short 40-aa middle fragment of the IDR) (natural protein, S. cerevisiae, UniProt Q06440 1-651, looked up)
# chain: MSGKFVRASKYRHVFGQAAKKELQYEKLKVTNNAWDSNLLKTNGKFIAVNWNASGGGAFAVIPIEEVGKAPDQVPLFRGHTAQVLDTDFDPFNDHRIASGSDDSKIGIWDIPENYKFHDHVDEDGEPIDIKPVKFLTGHARKVGHVLYHPVAENVLASSSGDYTVKLWNVETGKDMITLKHPDMVTSMSFSYDGNYLATVARDKKLRVWNIREEKIVSEGPAHTGAKNQRVVWLGNSDRLATTGFSKLSDRQIGIWDAFNIEKGDLGGFYTVDQSSGILMPFYDEGNKILYLVGKGDGNIRYYEFQNDELFELSEFQSTEAQRGFAVAPKRMVNVKENEVLKGFKTVVDQRIEPVSFFVPRRSEEFQEDIYPDAPSNKPALTAEEWFSGKSVEGPILVSMSSDIDQVNNAEDPSRDTSGWEEADDEPAPIKIETPVTPTEPKSLGLKKSVEKLSTLVLQLEDVVDKLTKANLDKDERLLKLEQKIGELSK
# notes: Crn1 (coronin), S. cerevisiae, residues 1-651 with 401-483 and 524-601 excluded by a two-step truncation of the full-length plasmid; short IDR 484-523 kept; By the stated limits residues 602-604 of the IDR stay in the construct; source: E. coli Rosetta (DE3), purified (HisTrap, SEC when necessary)
# B6: Crn1-ΔN (IDR and CC domains, aa 401-651) (domain or fragment, S. cerevisiae, UniProt Q06440 401-651, looked up)
# chain: RSIYDGSAPSFHEAKRPQQPTTQETALEEKKEQPKVEKPISESEKEVKQEAPKSPSPLKSASSSSTINHVLKEDNSINKLLKKSSDIDQVNNAEDPSRDTSGWEEADDEPAPIKIETPVTPTETKKDRTPKVEPSKELKPEPVSIATDRKQEQSLPQEEKSSEKTKSPEQEKSATPPSSITAAKTAITASSKEEPSAARTSPKSLGLKKSVEKLSTLVLQLEDVVDKLTKANLDKDERLLKLEQKIGELSK
# notes: Crn1 (coronin), S. cerevisiae, residues 401-651 (IDR and CC domain); source: E. coli Rosetta (DE3), purified (HisTrap, SEC when necessary)
# Legend:
# [1] = biological target: the molecule itself; test: SEC + other: negative-stain transmission electron microscopy; Superdex 200 increase 10/30 column in a pH 8 Tris-buffer with 150 mM NaCl; TEM of 1 µM protein in F-buffer
# [2] = biological target: the molecule itself; test: AUC; sedimentation velocity; 50 mM Tris pH 8.0, 150 mM NaCl, 20 °C, 30,000 or 45,000 rpm; c(s) and c(s,ff0) models in SEDFIT; samples at 3-9.2 µM
# [3] = biological target: rabbit skeletal muscle actin (RMA), filamentous (F-actin) (rabbit, UniProt P68135 1-377); test: co-sedimentation; high-speed actin cosedimentation: a range of concentrations of Crn1 variant with a fixed concentration of pre-polymerized actin filaments in F-buffer, room temperature 30 min, 100,000 x g 20 min at 25°C; bound against free coronin fitted with the Hill equation; details: both partners purified
Kd [3],Binder,binding result [1],stoichiometry N [2]
,B1,binds,
,B2,,~15
0.24 µM,B3,,4
,B4,,4 and 6
,B5,,3 and 6
,B6,,4
